# Source: the supplement of paper PMC11865577
# Legend:
# Assay in all cases: pull-down binding Z-score (relative to library population); higher = stronger binding
# [1] = system: G-clamp-N3 (biotin conjugate); conditions: RNA library: Library-1 (pre-miRNA loops + repeats)
# Procedure, shortened: (§1)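 To score binding, a beads-only signal was subtracted, barcoded replicate probes were averaged with the highest and lowest dropped, and the value was converted to a Z-score using the library mean and standard deviation. The input was 1 μg of Cy5- or Cy3-end-labelled RNA library, heat-folded in phosphate/NaCl/KCl buffer and mixed for 60 min at 25 °C with streptavidin beads carrying 100 pmol of biotin-conjugated small molecule. Bound RNA was eluted in hot SDS and hybridised to a DNA barcode microarray at 55.5 °C for 20 h.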
# [2] = system: TO-N3-2 (biotin conjugate); conditions: RNA library: Library-2
# Procedure, shortened: as §1
# [3] = system: TO-3-N3 (biotin conjugate); conditions: RNA library: Library-2
# Procedure, shortened: as §1
# TO-N3 (biotin conjugate) = conditions: RNA library: Library-2
# Procedure, shortened: as §1
# [4] = system: TO-3-N3-2 (biotin conjugate); conditions: RNA library: Library-2
# Procedure, shortened: as §1
Sequence,pull-down binding Z-score [1],pull-down binding Z-score [2],pull-down binding Z-score [3],pull-down binding Z-score (TO-N3 (biotin conjugate)),pull-down binding Z-score [4]
UGAUUUGUGACUUAAGAUUAAAAUCA [hsa-mir-23b],-0.478,-0.649,-0.415,-0.499,0.0381
UGCAAAUGCAAAGUUGGCUUUUGCA [hsa-mir-3680-2_3680-1],1.8,-0.878,-0.669,-0.954,-0.253
UGCACCACUCUCCCUGUGAUGAGGUGAA [hsa-mir-4786],-0.896,0.456,-0.535,-0.255,-0.354
UGCACCAGUUCUGGCCGCUGGUGGA [hsa-mir-4683],-0.459,0.856,-0.16,0.104,-0.295
UGCAGAUGUGGACUGCUAAAUGCA [hsa-mir-1253],-0.572,0.384,-0.411,-0.275,-0.171
UGCAGUAUCCGCUGUUGCUGCU [hsa-mir-6132],-1.39,0.672,-0.329,-0.105,-0.341
UGCAGUGAGCAACCUACACAACUGCA [hsa-mir-5589],-0.716,-0.188,-0.0632,-0.0697,-0.317
UGCAGUGCUGGGCAUGGGCUUCUCG [hsa-mir-3677],0.689,1.54,1.07,1.49,0.328
UGCAGUUAGUGAAGCAGCUUAGAAUCUACUGCC [hsa-mir-18b],0.0114,1.47,0.192,0.989,0.625
UGCAGUUCUGUUGGGUGACAGCA [hsa-mir-6499],-0.982,0.485,0.239,0.342,-0.0248
UGCAUAAAUGAAGCUGAAUGA [hsa-mir-6134],-0.213,0.629,-0.352,-0.0557,0.378
UGCCACCCAGCCCUGCAGAGCCCCUGACUC [hsa-mir-6814],-1.17,1.44,0.562,1.16,0.422
UGCCAUACUUUUAACGGCA [hsa-mir-548i-4],-0.464,-1.06,-0.727,-1.09,-0.272
UGCCAUUAAAAGUAAUGGCA [hsa-mir-548i-3_548i-2_548i-1],1.22,-0.409,0.489,0.141,-0.048
UGCCAUUACUCUCAGUGGCA [hsa-mir-548y],-0.0483,-1.01,-0.836,-1.16,-0.564
UGCCCUAGCGGCU [hsa-mir-4268],-0.151,-0.238,-0.212,-0.211,-0.708

Sequence,pull-down binding Z-score [1],pull-down binding Z-score [2],pull-down binding Z-score [3],pull-down binding Z-score (TO-N3 (biotin conjugate)),pull-down binding Z-score [4]
UGCCCUGGGGCCGUCCCUGCGCA [hsa-mir-1909],-1.26,1.63,0.425,0.883,0.143
UGCCUACUACUGAUGACAUACAAUGUAAGUGCUCAUUUAGGCG [hsa-mir-5696],-0.861,-0.201,-0.702,-0.71,-0.289
UGCCUCUCGGGGU [hsa-mir-6073],-0.532,0.214,0.000863,0.118,0.15
UGCCUUGUAGCAUUCAGGUCAAGCA [hsa-mir-103a-2],0.0735,0.0485,-0.594,-0.524,-0.378
UGCGUUAGGAUUUCUGUAUCAUCCUCCUAACGCA [hsa-mir-3166],0.901,-0.758,0.576,0.306,0.141
UGCUAUUACUUGUAUUUAUUUGUAAUGCA [hsa-mir-548ab],-0.547,-1.59,-0.524,-1.33,-0.88
UGCUAUUAGAAAGUAAUGGCA [hsa-mir-548ba],0.465,-0.00903,0.757,0.776,0.507
UGCUCAGUGGAGUUAUUUUGAGCA [hsa-mir-4495],1.2,-1.2,-1.01,-1.42,-0.621
UGCUCCUUGAACAGGAGGAGCA [hsa-mir-4708],1.09,-0.535,-0.48,-0.683,-0.405
UGCUCUGAUGAAGACCCAUGUGGC [hsa-mir-621],-0.6,1.51,-0.162,0.589,0.285
UGCUCUGGUGACUGAGGACCGCCAGGCA [hsa-mir-4763],-0.385,0.367,-0.245,-0.091,-0.197
UGCUGAUGUCAUCAGUCAUAACUUCUGCG [hsa-mir-6854],-0.983,0.366,-0.119,-0.0155,0.131
UGCUGGAGAAGUGUUU [hsa-mir-557],-0.431,0.156,0.516,0.49,0.0975
UGCUGGUGCUAGAGAGGAAAGCA [hsa-mir-4748],1,2.22,0.426,0.985,0.315
UGCUGUGAGCUAGCCAGCAG [hsa-mir-5693],-0.44,0.91,-0.0213,0.614,0.0593
UGCUGUGCUGUGCUGAGCAGGGCUGAGCUG [hsa-mir-4539],0.347,1.46,0.29,1.07,0.178
